From the nanobody polyreactivity screen of Harvey et al. (2022)

Assay: yeast display, Sf9 membrane polyspecificity reagent, FACS + sequencing; frameworks hold sequencing errors
In short: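 Nanobodies came from a synthetic yeast display library in Saccharomyces cerevisiae BJ5465, induced with galactose for 36–48 hours and stained for 1 hour at 4 °C with 10% biotinylated, detergent-solubilized Sf9 membrane reagent. Cells were enriched on streptavidin microbeads and then FACS-sorted, with low and high (top ~1%) gates set on anti-HA fluorescence for expression and streptavidin fluorescence for reagent binding. Each polyreactivity label reflects the gate a clone came from. Genes were amplified by colony PCR, sequenced by MiSeq 2 × 250 and filtered by CDR length.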

Sequence | polyreactivity (PSR sort gate)
QVQLVESGGGLVQAGRSLRLSCAASGRTYSVYAMGWYRKAPGKETELLAGITSGGSTNYADSVKGRFTISRDNAKNTVYLQMNSLNPEDTAVYYCAAENVYAGFGFVSIGDYWGQGTQVTVST | low polyreactivity
QVQLVDSGGGLVQAVGSLRLSCAASGRTFYANAMGWYRQAPGKERELVAAISSRSGTTHYADSVKGRFTISRDNAKNTVYLQMNSLKPEDTAVYYCNRQKWRLLTMGAHNRQAYDSWGQGTQVSVSS | low polyreactivity
QVQLVESGGGLVQAGGSLRLSCAASGSTFSQYAMGWYRQAPGKERELVAAITRGGRTYYADSVKGRFTISRDNAKNTVYLQMNSLKPEDTAVYYCNAVLGLLYGYDYWGQGTQVTVSS | high polyreactivity
QVQLQESGGGLVQAGGSLRLSCAASGSNFDTPTMGWYRQAPGKERELVASSAYDDNTYYADSVKGRFTISRYNAKNTVYLQRNSLKPGDTAVYYCAVTDRIYYYFVYWGQGTRVTVSS | high polyreactivity
QLQLVDSGGGLVQAGGRLSLSCAASGSIFYRYAMGWYIQAPGKERELVAAITSGGRTYYADSVKGRFTISRDNAKNTVYLQMNSLNPEDTAVYFCNAVYRKTSYGYWGQGTQVTVSS | high polyreactivity
QVQLVESGGGLVQAGGSLRLICAASGRTFNINGMGWYRQAPGKERELVAAITTSGGSTYYADSVKGRFTISRDNAKNTVYLQMNSLKPEDTAVYYCAADVFSRKYLYGDYDYWGQGTQVTVSS | high polyreactivity
QVQLVESGGGLVQAGGSLRLSCADSGRIFRGNGMGWSRQAPGKEREFVDAISRGDGNTYYADSVKGRFTISRDNAKNTVYLQMNSLKPEDTAVYSCAAGGYGYYDFPQYNYWGQGTQVTVSS | low polyreactivity
QVQLVESGGGLVQAGGSLRLSCAASGSTFSIYAMGWYRQAPGKERELVAAISSDSTYYADSVKGRFTISRDNAKNSVYLQMNSLKPEDTAVYYCAADPYFPKYYYWGQGTQVTVSS | low polyreactivity
QVQLVESGGGLVQAGGSLRLSCAASGFISTINVMGWYRQAPGKEREMVAAMTYIDGSTFYADSVKGRFTISRDNAKNTVYLQMNSLKPEDTAVYYCAADLYQWGAVFLYVRSTGLDYWGQGTQVTVSS | low polyreactivity
QVQLVETGGGLFQAGGSLRLSCAASGFIYSYAMGWYRQAPGKERELDAAISRSGGSTYYADSVKGRFTISRDNAKNTVYLQMNSLKPEDTAVYYCAARPNSNRYVRYGYWGQGTQVTVSS | high polyreactivity
QVQLVDSGGGLVQAGGSLRLTCAASGKIFVPNAMGWNRQAPGKERELVAAIRRGGSTNYADSVKGRFTISRDNAKNSVYLQMNSLKPEDTAVYYCAKSRVSFTDLVGYYWGQGTQVTVSS | low polyreactivity
QVQLVESGGGLVQAGGSLRLSCAASGSTFFFNAMGWYRQAPGKERELVAGISSSGGSTHYADSVKGRFTISRDNAKNTVYLQMNSLKPEDTAVYYCNAQQYLTFRGTGDYWGQGTQVTVSS | low polyreactivity
QVQLVESGGGLVQAGGSLRLSCAASGRIFVGYAMGWYRQAPGKERELVAAISSDGGSTYYADSVKGRFTISRDNAKNTVYLQMNSLKPEDSAVYYCNAYYGRFPYYADDYWGQGTQVTVSS | low polyreactivity
QVQLVESGGGLVQAGGSLRLSCAASGFIFSTNAMGWYRQAPGKERELVAAISRRGGNTYYADSVKGRFTISRDNAKNTVYLQMNSLKPEDTAVDYCNAVFRSGGLDYWGQGTQVTVSS | high polyreactivity
QVQLVESGGGLVQAGGSLRFSCAASGRIFFWYAMGWYRQAPGKEWELVAAISRDGGTTYYADSVKGRFTISRDNAKNTVYLQMNSLKPEDTAVYYCNAEARSRRYRYDYWGQGTQVNVSS | high polyreactivity
QVQLVESGGGLVQAGGSLRLSCAASGRTSRYYAMGWYRQAPGKERELVAAISSSGGNTYYADSVKGRFTISRDNAKNTVYLQMNSLKPEDTAVYYCNAYYPIRSSPYGYYYWGQGTQVTVSS | high polyreactivity
QVQLVESGGGLVQAGGSLRLSCAASGSIFNIYDMGWSRQAPGKERELVAGISWDGDSTYYADSVKGRFTISRDNAKNTVYLQMNSLKPEDTAVEYCAAVYTRAHISYYYWGQGTQVTVSS | high polyreactivity
QVQLVESGGGLVQAGGSLRLSCAASGFIFYRYAMGWSRQAPGKERELVAAISYRGGSTYYADSVKGRFTISRDIAKNTVYLQMNSLKAEDTAFYYCAAPGLYSRLDYWGQGTQVTVSS | high polyreactivity
QVQLVESGAGLVQAGGSLRLSCAASGRIFERYAMGWYRQAPGKERELVAAISVSGSGTYYADSVKGRFTISRDNAKNTVYLQMNSLKPEDTAVYYCAADASLLGLFQGYDYWGQGTQVTVSS | low polyreactivity
QVQLVESGGGLVQAGGSLRLSCAASGRIVVYNVMGGYRQAPGKERELVAAISWGTGSTYADSVKGRFTISRDNAKNTVYIQMNSLKPEDTAVYYCAADSFIPPYDHWGQGTQVTVSS | low polyreactivity
QVQHVESAGGLVQAGGSLRLSCAASGSIFPYNAMGWYRQAPGKERELVAAISYSGSTTYYADSVKRRFTISRDNSKNTVYLQMNSLKPEDTAVYYCNTLSWYQYDYWGQGTQVTVSS | high polyreactivity
QVQLVESGGGLVQAGGSLRLSCAASGNTFYTYAMGWYRQAPGKERELVAAITSGGRTYADSVKGRFTISRDNAKNTVYLQMNSLKPEDTEVYYCAAEFPGFYYVYPGDYWGQGTQVTVSS | low polyreactivity

Sequence | polyreactivity (PSR sort gate)
QVQLVESGGGLVQAGGSLRLSCAASGSIFVYYAMGWYRQAPGKERELVAAISSRGGRTYYADSVKGRFTISRDNAKNTVYLQMNSLKPEDTAVYYCAAVSSRLWLYDYWGQGTQVTVSS | high polyreactivity
QVQLVESGGGLVQAGGSLRLSCAASGLIFYENAMGWYRQAPGKERELVAAINYDGDSTYYADSVKGRFTISRDNAKNTFYLQLNSLKPEDTAVYYCAADGGWVLFWMDYWGQGTQVTVSS | low polyreactivity
PLQLVESGGGLVQAGGSLRLSCAASGRIFGTYAMGWYRQAPGKERELVAAITLSDGSTYYADSVKGRFTISRDNAKNTVYLEMNSLIPDDTAVYYCAAVVDRFHPGLYEYWGQGTQVTVSS | low polyreactivity
QVQLVESGGGLVQAVGSLRLSCAASGSTFGRNAMGWYRQAPGKERELVAAISWSASRTYYADSVKGRFTISRDNAKNTVYLQMNSLKPEDTAVYFCAAEYDVGYFGYEYWGQGTQVTVSS | high polyreactivity
QVQLQEIGGGLVQAGGSLRLSCAASGYISLAKTIGLSRQAPGKEREFVASIALGSSTYYTDSVKGSFTISRDNAKTTVYLQMNRLKPEDTAVYYCAARVGASYAHDYGGQGTQVTVSS | low polyreactivity
QVQLVESGGGLVQAGGTLRLSCAASGSTYDTYTMGGYSQAPGKERVLVAAITSSGDSTYYADSVKGRSTISRDNAKNTVYLQMNSLKPEDTAVYYCAAEVTVWLYYLYVGEYEYWGQGTQVTVSS | high polyreactivity
QVQLVESGGGLVQAGGSLRLSCAASGTFTGNAMGSYRQAPGKERELVAAITWSGGRTYYADSVKGRFTISRDNAKNTVYLQMNSLKPEDTAVYYCNAADEYLQERFWSDAFDYWGQGTQVTVSS | high polyreactivity
QVQLVESGGGLVQAGGSLRLSCAASGSTFYPNAMGWYRQAPGKERELVAAISRGTRTKYADSVKGRFTISRDNAMNTVYLQMNSLKPEDTAVYYCAADTGTGLDWGQGTQVTVSS | high polyreactivity
QVQLVESGGGLVQAGGSLRLSCAASGRIFYAYAMGWYRQEPGKERELVASISGSGGSTYYADSVKGRFTISRDNAKNTVYLQMNRLKPEDTAVYYCAKRYPFYSSGLSTYNYWGQGTQVTVSS | high polyreactivity
QVQLVESGGGLVQAGGSLRLSCAASGFIFSYYAMGWYRQAPGKERELVAAISGRGGSTYYADSVKGRFTISRDNEKNTVYLQMNSLKPEDTAVYYCAATTLRFYRHGDYWGQGTQVTVSS | low polyreactivity
QVQLVESGGGLVQAGGSLRLSCAASGSIFGYNAMGWYRQAPGKERELVAAIRRSGSSTYYADSVKGRFTISRDNAKNTVYLQMNSLKPEDTAVYYCNRVPRPVADQEYDYWGQGTQVTVSS | low polyreactivity
QVQLLESGGGLVQAGGSLRLSCAASGSILFTNAMGWYRQAPGKERELVAAISSGGSTYYADSVKGRFTFSRDNAKNTVYLQMNSLKPEDTAVYYSAADQLNVGREYVEYDYWGQGTQVTVSS | low polyreactivity
QVQLVESGGGLVQAGGSLRLSCAASGSIFSSYAMGWYRQAPGKERELVAAISSSGDSTYADSVKGRFTISRDNAKNTVYLQMNSLKPEDTAVYYCAVGGAGSDDYWGQGTQVTVSS | low polyreactivity
QVQLEESGGGLVQAGGSLRLSCSASGRIFSRNAMGWYRQAPGKERELVAAIRPRGGTTYYADSVKGRFTISRDNAKNTVYLQINSLKPYDTAVYYCATGGGRNSTDRRRLHYTYYYWGQGTQVTVSS | low polyreactivity
QVQLVESGGGLVQAGASLRLSCAASGRIFSGNAMGWYRQAPGKERELVAAISRGGSTDYADSVKGRFTSSRDNAKNTVYLQMNSLKPEDTAVYYCADRVNGKRRRYDYWGQGTLVTVSS | high polyreactivity
QVQLVESGGGLVQAGGSLRLSCAASGRTFDVYAMAWYRQAPGKERELVATISWRGTSTYYADSVKGRFTISRDNAKNTVYLQMNSLKPADTAVYYCAKDPQPDLYGSWGQGTQVTVSS | high polyreactivity
QVHLVDSGGGLVQAGGSLRLSCAASGRTFQVYTMGWSRQAPGKERELVAAITWNGGRTRYADSVKGRFTISRDNAKNTVYLQMTSLKPEDTAVYYCNAGNWITARAGFNDWGQGTQVTVSS | high polyreactivity
QVQLVESGGGLDQAGGSLRLSCAASGLTFPTNARGWYRQAPGKEREFVAAITSRGGTTYYADSVKGRFTISRDNAKNTVYLQMNSLKPEETAVYYCGALSVTIYQYDSYGYWGQGTQVSVSS | low polyreactivity
QDQLVESGGGLVQAGGSLRLSCAASGRIFGFNAMGWYRQAPGKERELVAAISWRGGSTRYADSVKGRFTISRDNAKNTVYLQMNSLKPEDTAVYYCATPYADPGTVQYAGYNYWGQGTQVTVSS | high polyreactivity
QVQLVESGGGLVQAGGSLRLSCAASGNTFSYYAMGWYRQAPGKERELVAAISWRGGSTYYADSVKGRFTISRDNAKNTVYLQMNSLKPEDTAVYYCAADLYWASLWYVGAAYGYEYWGQGTQVTVSS | low polyreactivity
QVQLVDSGGGLVQAGGSLRLSCAPSGTTYPGYAMGWYRQAPGKERELFAAIDRGGSTSYADSVKGRFTISRDNAKITVYLQMNSLKPEDTAFYYCAAEASVVHKSSDYDSWGQCTQVTVSS | low polyreactivity
